In US20090203766, “vWF aptamer formulations and methods for use” (Archemix Corp., published 2009):

Tests used:
[1] = biological target: von Willebrand factor (vWF) (Homo sapiens, UniProt P04275 P04275:764-2813); test: filter; text gives value as affinity of ARC1779 for vWF; PBS, 0.1 mg/ml BSA, room temperature 30 min; settings: label: 5'-32P
Protocol: For binding assays, the oligonucleotide core of ARC1779 was synthesized with a 5′-terminal hydroxyl moiety instead of a 5′ hexylamine and 20 kDa PEG and subsequently 5′-end labeled with γ-³²P ATP using T4 polynucleotide kinase (New England BioLabs, Beverly, Mass.). Aptamer was incubated at room temperature for 30 minutes in PBS containing 0.1 mg/ml BSA (as a specificity control) and increasing concentrations of human VWF. Bound complexes were separated from free DNA using an acrylic mini-dot blot apparatus (Schleicher and Schuell, Keene, N.H.) and a membrane sandwich (top to bottom) of Protran BA85 0.45 μm Nitrocellulose Membrane (Schleicher and Schuell, Keene, N.H.), Hybond P Nylon Membrane (Amersham, Piscataway, N.J.), and 3mM filter paper (Whatman, Florham Park, N.J.) all pre-wet with Dulbecco's PBS. Radioactivity associated with protein:DNA complexes (nitrocellulose) and free DNA (nylon) was quantified on a Storm 860 Phosphorimager (Molecular Dynamics/Amersham, Piscataway, N.J.). Binding constants were determined by fitting the fraction of aptamer bound as a function of the concentration of vWF.

[2] = biological target: von Willebrand factor (vWF), A1 domain sites in plasma/blood (Homo sapiens, UniProt P04275 P04275:764-2813); test: free vWF A1 sites activity ELISA, plasma after dosing of healthy volunteers, Emax fit; 0.22 ug/mL; EC90 151 nM; settings: protein: extract
Chain of von Willebrand factor (vWF), A1 domain sites in plasma/blood (P04275 764-2813, one chain of several): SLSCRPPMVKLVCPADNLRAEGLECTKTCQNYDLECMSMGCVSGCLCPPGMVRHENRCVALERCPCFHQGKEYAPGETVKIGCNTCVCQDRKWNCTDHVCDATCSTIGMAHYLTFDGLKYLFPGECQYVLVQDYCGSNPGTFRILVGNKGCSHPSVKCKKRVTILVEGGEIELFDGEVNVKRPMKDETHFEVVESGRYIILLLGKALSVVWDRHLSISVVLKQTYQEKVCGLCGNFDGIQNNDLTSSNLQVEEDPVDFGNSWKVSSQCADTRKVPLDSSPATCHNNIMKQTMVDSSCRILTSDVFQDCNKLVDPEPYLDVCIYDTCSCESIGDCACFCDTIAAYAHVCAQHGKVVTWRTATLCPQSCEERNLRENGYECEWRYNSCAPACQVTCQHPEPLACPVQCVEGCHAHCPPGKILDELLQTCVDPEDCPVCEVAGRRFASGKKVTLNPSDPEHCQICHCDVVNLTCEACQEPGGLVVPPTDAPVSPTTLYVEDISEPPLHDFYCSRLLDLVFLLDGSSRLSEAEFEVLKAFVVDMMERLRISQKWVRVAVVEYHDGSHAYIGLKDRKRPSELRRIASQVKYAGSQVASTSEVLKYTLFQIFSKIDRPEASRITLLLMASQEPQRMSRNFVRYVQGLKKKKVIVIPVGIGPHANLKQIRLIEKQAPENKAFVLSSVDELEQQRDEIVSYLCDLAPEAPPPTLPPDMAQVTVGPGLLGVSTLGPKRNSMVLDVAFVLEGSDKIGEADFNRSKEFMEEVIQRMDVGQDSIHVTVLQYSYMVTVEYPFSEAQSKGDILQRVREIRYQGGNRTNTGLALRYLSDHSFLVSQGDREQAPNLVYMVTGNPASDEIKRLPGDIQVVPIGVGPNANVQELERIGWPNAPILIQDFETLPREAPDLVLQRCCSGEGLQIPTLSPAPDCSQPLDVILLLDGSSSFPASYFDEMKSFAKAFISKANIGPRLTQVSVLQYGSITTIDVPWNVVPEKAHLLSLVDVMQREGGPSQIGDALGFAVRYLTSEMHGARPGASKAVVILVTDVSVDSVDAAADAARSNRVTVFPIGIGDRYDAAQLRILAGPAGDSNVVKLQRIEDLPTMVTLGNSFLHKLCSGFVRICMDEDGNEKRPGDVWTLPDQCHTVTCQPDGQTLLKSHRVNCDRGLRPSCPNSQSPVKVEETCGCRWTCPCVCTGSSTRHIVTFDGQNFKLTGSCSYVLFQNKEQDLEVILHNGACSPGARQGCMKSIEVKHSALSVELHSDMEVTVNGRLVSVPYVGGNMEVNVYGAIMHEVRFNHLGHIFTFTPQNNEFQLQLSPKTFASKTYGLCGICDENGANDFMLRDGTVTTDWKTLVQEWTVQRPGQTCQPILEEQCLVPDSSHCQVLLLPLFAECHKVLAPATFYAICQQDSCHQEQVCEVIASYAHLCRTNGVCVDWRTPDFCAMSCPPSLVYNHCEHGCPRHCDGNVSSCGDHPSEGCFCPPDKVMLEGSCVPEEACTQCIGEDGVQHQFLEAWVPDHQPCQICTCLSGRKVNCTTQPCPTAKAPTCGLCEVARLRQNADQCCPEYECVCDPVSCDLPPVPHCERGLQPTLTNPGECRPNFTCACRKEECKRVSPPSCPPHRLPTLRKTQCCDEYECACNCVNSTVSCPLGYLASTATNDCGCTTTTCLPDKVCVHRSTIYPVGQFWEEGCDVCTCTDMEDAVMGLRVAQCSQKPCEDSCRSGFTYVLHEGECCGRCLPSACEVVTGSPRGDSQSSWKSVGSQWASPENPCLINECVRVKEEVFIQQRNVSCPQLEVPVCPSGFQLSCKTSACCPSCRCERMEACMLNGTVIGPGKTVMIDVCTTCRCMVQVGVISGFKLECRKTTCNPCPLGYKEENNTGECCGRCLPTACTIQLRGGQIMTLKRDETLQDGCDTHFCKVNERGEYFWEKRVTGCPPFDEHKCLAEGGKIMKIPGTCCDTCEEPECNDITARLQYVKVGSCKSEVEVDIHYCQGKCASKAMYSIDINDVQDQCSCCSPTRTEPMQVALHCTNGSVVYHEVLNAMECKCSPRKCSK

Chain of von Willebrand factor (vWF) (P04275 764-2813, one chain of several): as above

B1: ARC1779 oligonucleotide core (no PEG) (mixed)
mixed: GCGUGCAGUGCCUUCGGCCGTGCGGTGCCUCCGUCACGC
modifications: same 2'-OMe/deoxy/PS/3'-inverted dT pattern as ARC1779, 5'-OH instead of hexylamine-PEG
Question: Which Kd [1] does the source give for B1 here?
Answer: ~2 nM

B2: ARC1779 (mixed)
mixed: GCGUGCAGUGCCUUCGGCCGTGCGGTGCCUCCGUCACGC
modifications: mGmCmGmUdGdCdAmGmUmGmCmCmUmUmCmGmGmCdCmG-s-dTmGdCdGdGdTmGmCdCmUdCdCmGmUdCmAmCmGmC-3T (m 2'-OMe; d deoxy; s PS; 3T inverted dT), 5'-20 kDa PEG
Question: With B2 as the binder, how does the EC50 [2] read?
Answer: 17 nM
